Assay results: PMC10296842, “How Do Cancer-Related Mutations Affect the Oligomerisation State of the p53 Tetramerisation Domain?” (Current Issues in Molecular Biology, 2023)

Target: the molecule itself
Experiment: native MS; peptide alone in 200 mM ammonium acetate, pH 7; high monomer concentration (80 uM WT and T329I, 100 uM R337H), cone voltage 40 V (raised to 80-120 V to dissociate the oligomers); positive ESI, TOF and ion mobility-TOF; WT and R337H not isotope-labelled

B1: 37TD-WT (wild-type p53 tetramerisation domain peptide, residues 320-356) (peptide, UniProt P04637 320-356, looked up)
chain: Ac-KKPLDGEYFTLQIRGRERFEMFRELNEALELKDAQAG-NH2
modifications: also: 13C-methyl Met340 in the isotope-labelled form
notes: p53 tetramerisation domain, residues 320-356 (37 amino acids); Made twice: with normal methionine (used in native MS and CD) and with 13C-methyl methionine (used in NMR); also called WT TD; p53TD; source: synthetic peptide (manual Fmoc/tBu SPPS), purified by semi-preparative HPLC
- stoichiometry N: 4
